Results published in patent US20150210756A1 (NEW YORK UNIVERSITY, published 2015).
Changes are numbered by the printed parent chain.

T1: HlgA (S. aureus, UniProt P0A071 30-309)
T1 construct: also called gamma hemolysin A; HlgA subunit
T1 sequence: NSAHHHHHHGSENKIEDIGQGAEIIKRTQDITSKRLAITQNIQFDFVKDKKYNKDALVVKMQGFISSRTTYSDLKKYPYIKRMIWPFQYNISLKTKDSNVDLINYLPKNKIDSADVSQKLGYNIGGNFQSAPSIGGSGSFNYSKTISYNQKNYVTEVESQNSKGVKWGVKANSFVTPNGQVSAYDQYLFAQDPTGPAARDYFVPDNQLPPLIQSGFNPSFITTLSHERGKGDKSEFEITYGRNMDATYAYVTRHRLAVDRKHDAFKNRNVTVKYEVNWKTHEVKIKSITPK

T2: HlgC (S. aureus, UniProt Q07227 30-315)
T2 construct: also called gamma hemolysin C; HlgC subunit
T2 sequence: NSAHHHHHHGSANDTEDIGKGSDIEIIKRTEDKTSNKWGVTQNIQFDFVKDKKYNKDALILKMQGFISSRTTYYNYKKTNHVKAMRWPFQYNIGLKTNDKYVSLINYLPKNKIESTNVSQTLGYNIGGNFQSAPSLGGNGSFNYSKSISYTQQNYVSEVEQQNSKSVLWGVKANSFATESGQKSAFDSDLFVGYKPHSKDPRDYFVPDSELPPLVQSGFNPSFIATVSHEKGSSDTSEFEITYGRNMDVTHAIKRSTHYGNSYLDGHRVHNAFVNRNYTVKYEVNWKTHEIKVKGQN

T3: Recombinant LukA′B toxoid complex (S. aureus, UniProt Q2FFA2 28-351; P21224 30-338)
T3 construct: also called modified LukA′B toxoid complex
T3 sequence 1: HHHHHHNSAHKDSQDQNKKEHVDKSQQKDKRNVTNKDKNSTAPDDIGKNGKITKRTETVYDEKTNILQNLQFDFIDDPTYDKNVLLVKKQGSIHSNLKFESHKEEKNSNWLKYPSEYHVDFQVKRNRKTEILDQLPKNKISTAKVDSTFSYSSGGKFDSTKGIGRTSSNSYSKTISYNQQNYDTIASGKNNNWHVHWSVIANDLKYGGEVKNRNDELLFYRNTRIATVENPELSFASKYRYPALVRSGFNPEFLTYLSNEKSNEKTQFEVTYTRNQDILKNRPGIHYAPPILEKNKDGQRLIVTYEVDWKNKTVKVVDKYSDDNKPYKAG
T3 sequence 2: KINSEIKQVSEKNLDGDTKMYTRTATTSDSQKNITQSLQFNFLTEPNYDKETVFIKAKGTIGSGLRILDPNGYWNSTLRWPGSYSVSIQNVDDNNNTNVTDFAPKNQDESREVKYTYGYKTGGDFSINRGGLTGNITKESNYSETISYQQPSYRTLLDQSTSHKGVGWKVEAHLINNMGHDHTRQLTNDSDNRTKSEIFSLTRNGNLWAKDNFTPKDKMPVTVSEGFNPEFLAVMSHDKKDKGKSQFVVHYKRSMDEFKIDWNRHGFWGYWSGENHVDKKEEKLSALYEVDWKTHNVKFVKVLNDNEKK

T4: LukD (S. aureus, UniProt Q2FXB1 27-327)
T4 construct: also called leukotoxin D
T4 sequence: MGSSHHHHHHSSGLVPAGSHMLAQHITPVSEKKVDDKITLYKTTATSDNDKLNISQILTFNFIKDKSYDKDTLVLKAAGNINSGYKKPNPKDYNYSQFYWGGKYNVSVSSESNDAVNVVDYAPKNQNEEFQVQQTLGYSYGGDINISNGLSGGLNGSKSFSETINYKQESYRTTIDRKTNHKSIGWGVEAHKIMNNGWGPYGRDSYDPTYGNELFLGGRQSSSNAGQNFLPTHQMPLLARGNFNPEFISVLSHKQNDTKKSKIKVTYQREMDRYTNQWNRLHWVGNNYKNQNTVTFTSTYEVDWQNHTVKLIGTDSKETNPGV

B1: Luk151 (designed binder)
chain: LPAPKNLVVSRVTEDSARLSWTAPDAAFDSFGITYTEVYWWGEAIVLTVPGSERSYDLTGLKPGTEYTVTIPGVKGGWISAPLSAIFTT
B2: Luk129 (designed binder)
chain: LPAPKNLVVSRVTEDSARLSWTAPDAAFDSFNINYPEEFHGGEAIVLTVPGSERSYDLTGLKPGTEYEVWIWGVKGGSSSNPLSAIFTT
B3: Luk188 (designed binder)
chain: LPAPKNLVVSRVTEDSARLSWTAPDAAFDSFHIHYWEFNPAGEAIVLTVPGSERSYDLTGLKPGTEYFVGIHGVKGGGISWPLSAIFTT
B4: Luk357 (designed binder)
chain: LPAPKNLVVSRVTEDSARLSWTAPDAAFDSFTIHYFESLLTGEAISLVVPGSERSYDLTGLKPGTEYLVPIYGVKGGFISQPLIAIFTT
B5: Luk19 (designed binder)
chain: LPAPKNLVVSRVTEDSARLSWYHAIHRLNHFDSFLIQYQESEKVGEAIVLTVPGSERSYDLAGLKPGTEYTVSIYGVLPDAFVSSNPLSAIFTT
notes: not shown: C-terminal poly-histidine tag
B6: Luk20 (designed binder)
chain: B5 chain with A62T
notes: as for B5
B7: Luk17 (designed binder)
chain: LPAPKNLVVSRVTEDSARLSWTAPDAAFDSFWITYEEKFYRGEAIVLTVPGSERSYDLTGLKPGTEYKVWIVGVKGGQGSWPLSAIFTT
notes: also called Luk17 anti-LukAB FN3 domain; not shown: C-terminal poly-histidine tag
B8: Luk24 (designed binder)
chain: LPAPKNLVVSRVTEDSARLSWTAPDAAFDSFQIGYFELWPNGEAIVLTVPGSERSYDLTGLKPGTEYEVFIRGVKGGLYSYPLSAIFTT
notes: as for B5
B9: Luk12 (designed binder)
chain: LPAPKNLVVSRVTEDSARLSWRAKPWAPKFDSFLIQYQESEKVGEAIVLTVPGSERSYDLTGLKPGTEYTVSIYGVKASEKFIESNPLSAIFTT
notes: also called Luk12 anti-LukD FN3 domain; not shown: C-terminal poly-histidine tag
B10: Luk22 (designed binder)
chain: B9 chain with T70A
notes: also called anti-LukD FN3 domain Luk22; not shown: C-terminal poly-histidine tag
B11: Luk11 (designed binder)
chain: B9 chain with K77S, S79I, E80K, K81P, F82G, I83H, E84T
notes: as for B5
B12: Luk9 (designed binder)
chain: LPAPKNLVVSRVTEDSARLSWDRTYSLLNYFDSFLIQYQESEKVGEAIVLTVPGSERSYDLTGLKPGTEYTVSIYGVGGQHPTYESNPLSAIFTT
notes: as for B5
B13: Luk10 (designed binder)
chain: LPAPKNLVVSRVTEDSARLSWAASENAFVFDSFLIQYQESEKVGEAIVLTVPGSERSYDLTGLKPGTEYTVSIYGVGGKLHNQFEWLSNPLSAIFTT
notes: also called anti-LukD FN3 domain Luk10; not shown: C-terminal poly-histidine tag
B14: CR5133 PRASA A6 HC-AB (Construct 6) (other)
heavy: EVQLVETGGGLVKPGGSLRLSCSASRFSFRDYYMTWIRQAPGKGPEWVSHISGSGSTIYYADSVRGRFTISRDNAKSSLYLQMDSLQADDTAVYYCARGGRATSYYWVHWGPGTLVTVSSASTKGPSVFPLAPSSKSTSGGTAALGCLVKDYFPEPVTVSWNSGALTSGVHTFPAVLQSSGLYSLSSVVTVPSSSLGTQTYICNVNHKPSNTKVDKKVEPKSCDKTHTCPPCPAPPVAGPDVFLFPPKPKDTLMISRTPEVTCVVVDVSHEDPEVKFNWYVDGVEVHNAKTKPREEQYNSTYRVVSVLTVLHQDWLNGKEYKCKVSNAALPAPIAKTISKAKGQPREPQVYTLPPSRDELTKNQVSLTCLVKGFYPSDIAVEWESNGQPENNYKTTPPVLDSDGSFFLYSKLTVDKSRWQQGNVFSCSVMHEALHNRFTQKSLSLSPGKGGGGSGGGGSGGGGSGGGGSMLPAPKNLVVSRVTEDSARLSWTAPDAAFDSFWITYEEKFYRGEAIVLTVPGSERSYDLTGLKPGTEYKVWIVGVKGGQGSWPLSAIFTT
light: EIVLTQSPATLSLSPGERATLSCRASQSVSGYLGWYQQKPGQAPRLLIYGASSRATGIPDRFSGSGSGTDFTLTISRLEPEDFAVYYCQQYGSSPLTFGGGTKLEIKRTVAAPSVFIFPPSDEQLKSGTASVVCLLNNFYPREAKVQWKVDNALQSGNSQESVTEQDSKDSTYSLSSTLTLSKADYEKHKVYACEVTHQGLSSPVTKSFNRGEC
notes: also called mAb 5133 PRASA A6 HC LukAB
B15: CR5133 PRASA A6 LC-D (Construct 5) (other)
heavy: EVQLVETGGGLVKPGGSLRLSCSASRFSFRDYYMTWIRQAPGKGPEWVSHISGSGSTIYYADSVRGRFTISRDNAKSSLYLQMDSLQADDTAVYYCARGGRATSYYWVHWGPGTLVTVSSASTKGPSVFPLAPSSKSTSGGTAALGCLVKDYFPEPVTVSWNSGALTSGVHTFPAVLQSSGLYSLSSVVTVPSSSLGTQTYICNVNHKPSNTKVDKKVEPKSCDKTHTCPPCPAPPVAGPDVFLFPPKPKDTLMISRTPEVTCVVVDVSHEDPEVKFNWYVDGVEVHNAKTKPREEQYNSTYRVVSVLTVLHQDWLNGKEYKCKVSNAALPAPIAKTISKAKGQPREPQVYTLPPSRDELTKNQVSLTCLVKGFYPSDIAVEWESNGQPENNYKTTPPVLDSDGSFFLYSKLTVDKSRWQQGNVFSCSVMHEALHNRFTQKSLSLSPGK
light: EIVLTQSPATLSLSPGERATLSCRASQSVSGYLGWYQQKPGQAPRLLIYGASSRATGIPDRFSGSGSGTDFTLTISRLEPEDFAVYYCQQYGSSPLTFGGGTKLEIKRTVAAPSVFIFPPSDEQLKSGTASVVCLLNNFYPREAKVQWKVDNALQSGNSQESVTEQDSKDSTYSLSSTLTLSKADYEKHKVYACEVTHQGLSSPVTKSFNRGECGGGGSGGGGSGGGGSGGGGSLPAPKNLVVSRVTEDSARLSWRAKPWAPKFDSFLIQYQESEKVGEAIVLTVPGSERSYDLTGLKPGTEYTVSIYGVKASEKFIESNPLSAIFTT
B16: CR5133 PRASA A6 LC-D HC-AB (Construct 7) (other)
heavy: B14 heavy
light: B15 light
notes: also called PRASA A6 LC-D AB construct 7

The binders below were run against T1, HlgA (assay: ELISA on purified, recombinant HlgA).

| Binder | binding result |
| --- | --- |
| B1 | binds |
| B2 | binds |

Each binder was assayed against T2, HlgC (assay: ELISA on purified, recombinant HlgC).

| Binder | binding result |
| --- | --- |
| B3 | binds |
| B4 | binds |

These binders were tested against T3, Recombinant LukA′B toxoid complex (assay: ELISA after cis-display panning).

| Binder | binding result |
| --- | --- |
| B5 | binds |
| B6 | binds |
| B7 | binds |
| B8 | binds |

The binders below were run against T4, LukD (assay: ELISA after cis-display panning).

| Binder | binding result |
| --- | --- |
| B9 | binds |
| B10 | binds |
| B11 | binds |
| B12 | binds |
| B13 | binds |

These binders were tested against T5, Protein A (Staphylococcus aureus, UniProt P38507 37-477) (assay: direct ELISA on coated biotinylated Protein A).
T5 construct: also called S. aureus Protein A; SpA

| Binder | binding result |
| --- | --- |
| B14 | no binding |
| B15 | no binding |
| B16 | no binding |

These binders were tested against human FcγRI (human, UniProt P12314 16-288) (assay: AlphaScreen competition against biotinylated IgG1).
human FcγRI, sequence (P12314 16-288 limits assumed): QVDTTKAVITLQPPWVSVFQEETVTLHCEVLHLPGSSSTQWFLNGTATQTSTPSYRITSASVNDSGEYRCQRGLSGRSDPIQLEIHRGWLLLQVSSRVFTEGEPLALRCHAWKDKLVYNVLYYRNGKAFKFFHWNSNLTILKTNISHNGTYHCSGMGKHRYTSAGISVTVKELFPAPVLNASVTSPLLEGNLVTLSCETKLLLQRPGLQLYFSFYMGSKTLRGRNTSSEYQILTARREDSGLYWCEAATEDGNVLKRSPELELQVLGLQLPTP

| Binder | binding result |
| --- | --- |
| B14 | no binding |
| B15 | no binding |
| B16 | no binding |

What follows are binders tested against human FcγRIIIa (V158) (human, UniProt P08637 17-208) (assay: AlphaScreen competition against biotinylated IgG1).
human FcγRIIIa (V158), sequence (P08637 17-208 F176V limits assumed): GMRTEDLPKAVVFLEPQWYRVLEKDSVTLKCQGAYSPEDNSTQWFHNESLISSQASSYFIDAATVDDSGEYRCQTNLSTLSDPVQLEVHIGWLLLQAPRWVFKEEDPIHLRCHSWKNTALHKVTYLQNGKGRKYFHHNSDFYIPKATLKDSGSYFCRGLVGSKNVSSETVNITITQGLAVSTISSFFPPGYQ

| Binder | binding result |
| --- | --- |
| B14 | binds |
| B15 | binds |
| B16 | binds |
